In series [1] the test system is children with FIRES. The conditions noted are these: Kenney-Jung et al. 2016; cited from earlier work.
Series [2] concerns the target T1, human IL-1R (Homo sapiens, UniProt P14778).
T1 construct: Human embryonic kidney (HEK) cells expressing murine and human IL-1 receptor proteins; host or cells: HEK-Blue IL1R (HEK293-derived reporter cells)
T1 sequence (P14778 18-569): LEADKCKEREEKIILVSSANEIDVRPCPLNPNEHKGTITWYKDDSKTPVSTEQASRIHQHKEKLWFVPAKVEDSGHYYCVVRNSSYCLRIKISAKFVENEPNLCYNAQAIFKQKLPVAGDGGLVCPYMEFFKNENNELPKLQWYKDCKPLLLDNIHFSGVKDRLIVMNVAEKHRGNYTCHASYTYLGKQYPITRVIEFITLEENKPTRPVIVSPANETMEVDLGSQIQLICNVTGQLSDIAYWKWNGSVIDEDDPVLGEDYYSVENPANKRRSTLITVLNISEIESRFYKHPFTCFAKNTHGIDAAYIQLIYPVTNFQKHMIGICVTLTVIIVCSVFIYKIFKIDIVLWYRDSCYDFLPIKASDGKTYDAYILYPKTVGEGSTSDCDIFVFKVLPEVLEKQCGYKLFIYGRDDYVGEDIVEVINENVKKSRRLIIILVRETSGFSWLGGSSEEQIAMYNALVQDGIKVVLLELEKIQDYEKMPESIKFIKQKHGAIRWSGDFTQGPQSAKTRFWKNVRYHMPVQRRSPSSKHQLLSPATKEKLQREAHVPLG
The experiment in a line: HEK-Blue IL1R cell-based IL-1R signaling reporter assay (SEAP, Quanti-Blue, absorbance 655 nm). As to the method:
HEK-Blue IL1R cells: Human embryonic kidney (HEK) cells expressing murine and human IL-1 receptor proteins, as well as expressing secreted embryonic alkaline phosphatase under NF-kB/AP1 transcriptional control (HEK-Blue IL1R, InvivoGen), were maintained in DMEM with 10% FBS, 2 mM glutamine, 50 U/mL penicillin, 50 μg/ml streptomycin, 100 μg/ml Normocin, 200 μg/mL hygromicin B, 1 μg/mL puromycin, and 100 μg/ml Zeocin. Heat inactivated human serum tested negative for background alkaline phosphatase activity. In initial experiments, HEK-Blue IL1R cells were treated for 24 hours with 0-100 ng/mL recombinant human IL-1β (Peprotech) in the presence of 0-200 ng/mL anakinra. In subsequent experiments, cells were treated with 32 pg/mL IL-1β for all conditions. After 3 hours, saturating concentrations (10 μg/mL) of anakinra were added to the cells to block further IL-1R signaling, and endpoint supernatants were collected at 24 hours. Supernatants (20-40 μL) were mixed with prewarmed QUANTI-Blue reagent (160 μL, InvivoGen) and incubated at 37° C. in a Spectramax M3 multi-mode microplate reader (Molecular Devices). Absorbance at 655 nm was recorded every 5 minutes for 3 hours via kinetic read. The basal absorbance of untreated HEK-Blue IL-1R cell supernatant was subtracted from all samples to normalize for non-specific signal.
Given that both IL-1β and IL-1RA were elevated in FIRES patient serum, experiments were conducted to determine whether the elevation translated into a change in overall IL-1R signaling activity. To develop a sensitive functional measurement of IL-1R signaling activity, a cell based assay using HEK-Blue IL1R cells was developed and optimized. These cells express human IL-1R and respond to IL-1R signaling-induced NFκB activity by producing secreted embryonic alkaline phosphatase (SEAP), which dose-dependently results in increased absorbance of 655 nm wavelength light upon incubation with Quanti-Blue substrate (FIG. 2A).
To investigate this possibility, the antagonistic activity of FIRES patient CSF-derived IL-1RA was assessed using an in vitro HEK-Blue IL1R cell-based assay. […] Thus, HEK-Blue IL1R cells were treated with 32 pg/mL IL-1β in the presence of either 50% dialyzed FIRES patient CSF containing 65 pM patient IL-1RA or 50% dialyzed CSF derived from NPH patients that was supplemented with recombinant IL-1RA prior to dialysis to reach concentrations of IL-1RA equimolar to that seen in FIRES patient CSF. The percent inhibition of IL-1R-induced SEAP was then compared in cells treated with 50% CSF containing 65 pM FIRES patient IL-1RA vs. 50% CSF containing 65 pM anakinra.
In general terms: Reporter assays use an easily measured gene product as a stand-in for the process of interest.

Series [3] in a line: IL-1RA ELISA in FIRES patient serum and CSF before and after initiation of anakinra treatment. The format is in vivo, human. The following applies: detects the exogenous IL-1RA. As to the method:
IL-1RA enzyme-linked immunosorbent assay: The human IL-1RA/IL1F3 Quantikine ELISA kit (R&D Systems) was used according to the manufacturer's instructions. Serum and CSF samples were diluted (1:2-1:5000 in assay diluent) and duplicate samples were measured against a standard curve (31.3-2000 pg/mL in duplicate). After chromogen development, absorbance was measured on a Spectramax M3 multi-mode microplate reader (Molecular Devices). Absorbances falling outside the range of the standard curve were reanalyzed at different dilutions.
To determine whether there was a diminished level of endogenous IL-1RA in FIRES patient serum or CSF, IL-1RA levels were measured by enzyme-linked immunosorbent assay (ELISA) in FIRES patient serum and CSF before and after initiation of anakinra treatment, as well as in serum from healthy controls, CSF from normal pressure hydrocephalus patients, and serum and CSF from patients with other seizure disorders. […] IL-1RA was strongly elevated in FIRES CSF compared to normal pressure hydrocephalus controls and patients with ESES or focal epilepsy (FIG. 1C). CSF IL-1β levels, which were only rarely detectable in healthy controls, were also elevated in among FIRES patients (FIG. 1D). […] This finding also was consistent with reports of elevated IL-1RA following seizure activity (Lehtimaki et al., Neuroimmunomodulation 17(1):19-22, 2010).

As for “anakinra: recombinantly-produced human IL-1RA”, in series [1], the “clinical response of seizure disorder” value is given as “some children with FIRES respond”. Besides, the “suppression of the measured increase in IL-1R activity elicited by serum plus IL-1β” value in series [2] (32 pg/mL IL-1β in the presence of 10% serum (HC, FE, FIRES, ESES), all conditions, FIG. 3E) is recorded as “at least partially suppressed”. In addition, the “IL-1R signaling in IL-1β treated HEK cells compared to unsupplemented NPH CSF” value in series [2] (32 pg/mL IL-1β, 50% dialyzed NPH CSF supplemented with 65 pM, FIG. 5B) is recorded as “significantly less IL-1R signaling”. Also, the “inhibition of IL-1R signaling in dialyzed CSF” value in series [2] (CSF dialyzed against DMEM/F12, 100 Dalton cut off membrane, FIG. 4D) is “restored anakinra-mediated inhibition”. The “blockade of IL-1β-induced IL-1R signaling (SEAP)” value in series [2] (HEK-Blue IL1R cells, co-treatment with IL-1β, FIG. 2B) is given as “competitively blocked”. Moreover, the “inhibition of IL-1R signaling in undialyzed CSF” value in series [2] (media containing 50% control CSF or artificial CSF, compared to complete media, FIGS. 4A-4C) is given as “did not show inhibition of IL-1R signaling”. Further, in series [3] (FIRES patient CSF), the “CSF level of IL-1RA following treatment” value was “further increased”. Also, in series [3] (FIRES patient serum), the “serum level of IL-1RA following treatment” value is “further increased”.

Values taken from US12216128B2, “Methods for guiding therapy decisions in seizure disorders” (Mayo Foundation for Medical Education and Research, priority 2018, dated 2025).
